Experimental data taken from publication PMC10950897, “VCF1 is a p97/VCP cofactor promoting recognition of ubiquitylated p97-UFD1-NPL4 substrates” (Nature Communications, 2024).

Legend:
ubiquitin (K48-Ub2-16) = assay: StrepTactin pulldown of VCF1 with K48-linked ubiquitin chains; ubiquitin interaction alone or in complex with p97; format: binding
Experimental: All in vitro binding experiments were performed in EBC or RIPA buffer as indicated. Recombinant Biotin-tagged K48-linked poly-ubiquitin chains (2−7) and K48-linked poly-ubiquitin chains (2−16) were purchased from R&D Systems and Enzo Life Science, respectively. Recombinant proteins were incubated with Strep-Tactin Sepharose (IBA), Glutathione agarose (Gold Biotechnology) or […] Fab-trap agarose (ChromoTek) overnight on an end-over-end rotator at 4 °C, washed six times with EBC or RIPA buffer, and resuspended in 2×Laemmli sample buffer. For p97, VCF1 or p47 pulldowns, antibodies (0.5 µg/sample) were coupled to agarose beads, incubated with recombinant proteins or cell lysates and washed with the indicated buffer. To assess p97-UFD1-NPL4 binding to ubiquitylated proteins in total cell extracts, U2OS cells were lysed in EBC buffer supplemented with protease and phosphatase inhibitors, sonicated and incubated on ice for 10 min. Lysates were cleared by centrifugation for 10 min at 16,100 × g. Cell lysate (40 µg) was added to recombinant proteins in EBC buffer, incubated overnight on the rotator with […] Fab-trap agarose (ChromoTek), and beads were washed six times.

p97 ATPase = assay: ATPase assay; format: biochemical, human; conditions: p97 25 nM; for relative ATPase activity: ATP 375 μM
Experimental: For ATPase assays, 1 ml of 5x assay buffer (250 mM Tris, pH 7.4; 100 mM MgCl2; 5 mM EDTA) was mixed with 3 ml water, 5 μl 0.5 M TCEP and 5 μl 10% Triton X. To 40 ul of this assay buffer, recombinant proteins were added, mixed and incubated for 30 min. Final protein concentrations were as follows: p97 (25 nM), VCF1 (range of 0, 0.025, 1, 10 and 25 nM). The reactions were started by adding 10 μl ATP (final concentration of 375 μM) to the 40 μl reactions in a 96 well plate. After 35 min at room temperature, reactions were stopped by adding 50 μl BIOMOL Green reagent (Enzo Life Sciences). Absorbance at 635 nm was measured after 4 min and the relative ATPase activity calculated. Reactions were performed in duplicates and repeated three times.

Ub(G76V)-GFP, U2OS cells = assay: QIBC of Ub(G76V)-GFP in cells overexpressing FLAG-tagged proteins; format: cell-based, human; conditions: FLAG-tagged plasmids, FLAG-positive cells
Experimental: U2OS (catalog no. HTB-96) cells were obtained from ATCC. HEK293-EBNA1-6E cells were a kind gift from Yves Durocher (National Research Council Canada, Montreal, Canada). All mammalian cell lines were cultured under standard conditions at 37 °C and 5% CO2 in DMEM (Thermo) supplemented with 10% FBS (v/v) and penicillin-streptomycin (Thermo). Recombination cloning-compatible U2OS cells were generated using the Flp-In T-Rex Core Kit (Thermo) according to the manufacturer’s instructions and maintained under selection using Blasticidin (Invivogen) and Zeocin (Thermo). To generate cell lines stably expressing GFP-VCF1, U2OS Flp-In T-Rex cells (Thermo) were co-transfected with GFP-VCF1 constructs and pOG44 (Thermo) plasmids, followed by selection with Hygromycin (Invitrogen). Single clones were carefully screened for uniform expression of ectopic GFP-VCF1 at low levels and maintained under selection with Blasticidin and Hygromycin. To induce GFP-VCF1 expression, cells were treated with Doxycycline (DOX) (0.5 µg/ml) for 16 h. U2OS cell lines stably expressing Ub(G76V)-GFP or Ub(G76V)-GFP-20AA were described previously. A U2OS cell line stably expressing Ub(G76V)-GFP-NES was generated under G418 (Invivogen) selection. […]
Mammalian cells grown on coverslips were fixed in formalin buffer (VWR) for 15 min at room temperature (RT). […] Quantitative image-based cytometry (QIBC) was performed as described. […]

## VCF1: human FAM104A isoform 1, 186 amino acids (UniProt Q969W3); recombinant Strep-HA-tagged
Ubiquitin (K48-Ub2-16)
  interaction with ubiquitin: neither in isolation nor in complex with p97 did VCF1 display detectable interaction with ubiquitin
p97 ATPase; 0.025 nM, replicate 1
  relative ATPase activity: 0.985
p97 ATPase; 0.025 nM, replicate 2
  relative ATPase activity: 0.875
p97 ATPase; 0.025 nM, replicate 3
  relative ATPase activity: 1.031
p97 ATPase; 1 nM, replicate 1
  relative ATPase activity: 1.071
p97 ATPase; 1 nM, replicate 2
  relative ATPase activity: 0.934
p97 ATPase; 1 nM, replicate 3
  relative ATPase activity: 0.99
p97 ATPase; 10 nM, replicate 1
  relative ATPase activity: 1.095
p97 ATPase; 10 nM, replicate 2
  relative ATPase activity: 1.007
p97 ATPase; 10 nM, replicate 3
  relative ATPase activity: 1.066
p97 ATPase
  effect on p97 ATPase activity (in words): had no impact on the ATPase activity of p97 in vitro
Ub(G76V)-GFP, U2OS cells
  effect of overexpression on Ub(G76V)-GFP: stabilized Ub(G76V)-GFP similar to the effect of elevating NPL4 or p47 expression levels
